Where two headings read alike, the source gives them in different places.
Tests used:
[1] = target: T1, Human RPA (heterotrimeric RPA complex: RPA70, RPA32 and RPA14 subunits) (human, UniProt P27694;P15927;P35244); assay: BLI
[2] = target: T1, Human RPA (heterotrimeric RPA complex: …); assay: BLI; remark: listed apart in the source

T1 sequence (P27694 whole entry, chain 1 of 3): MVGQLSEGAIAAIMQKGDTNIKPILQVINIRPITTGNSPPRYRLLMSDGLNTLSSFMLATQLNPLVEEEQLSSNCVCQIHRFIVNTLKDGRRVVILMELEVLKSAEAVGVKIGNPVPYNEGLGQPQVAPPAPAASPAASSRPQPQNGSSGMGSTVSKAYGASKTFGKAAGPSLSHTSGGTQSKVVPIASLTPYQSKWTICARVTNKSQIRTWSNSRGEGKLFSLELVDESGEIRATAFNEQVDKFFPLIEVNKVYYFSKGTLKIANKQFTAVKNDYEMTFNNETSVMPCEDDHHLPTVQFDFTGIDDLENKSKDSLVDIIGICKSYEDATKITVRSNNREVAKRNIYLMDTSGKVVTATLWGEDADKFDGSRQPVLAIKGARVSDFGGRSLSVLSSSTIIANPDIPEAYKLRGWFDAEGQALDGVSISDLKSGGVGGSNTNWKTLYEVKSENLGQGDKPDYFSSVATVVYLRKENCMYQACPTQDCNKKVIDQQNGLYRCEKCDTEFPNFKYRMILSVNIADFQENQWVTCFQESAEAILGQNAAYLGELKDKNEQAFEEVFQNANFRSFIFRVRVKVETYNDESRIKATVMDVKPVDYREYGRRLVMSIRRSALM
T1 sequence (P15927 whole entry, chain 2 of 3): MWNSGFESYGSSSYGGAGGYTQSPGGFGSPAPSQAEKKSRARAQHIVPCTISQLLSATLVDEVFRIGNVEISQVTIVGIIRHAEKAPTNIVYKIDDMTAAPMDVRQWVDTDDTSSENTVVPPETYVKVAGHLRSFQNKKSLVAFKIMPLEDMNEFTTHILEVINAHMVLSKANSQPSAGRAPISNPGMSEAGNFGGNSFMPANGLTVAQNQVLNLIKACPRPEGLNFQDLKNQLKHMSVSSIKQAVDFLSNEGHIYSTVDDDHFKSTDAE
T1 sequence (P35244 whole entry, chain 3 of 3): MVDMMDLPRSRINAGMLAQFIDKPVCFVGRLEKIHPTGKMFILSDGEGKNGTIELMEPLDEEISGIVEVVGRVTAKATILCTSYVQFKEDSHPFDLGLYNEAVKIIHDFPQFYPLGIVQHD

- Kd [1]: 35 µM
- Kd [2]: 1.5 µM
B1: Lamin-C (amino acid residues 1-152) (domain or fragment)
chain: METPSQRRATRSGAQASSTPLSPTRITRLQEKEDLQELNDRLAVYIDRVRSLETENAGLRLRITESEEVVSREVSGIKAAYEAELGDARKTLDSVAKERARLQLELSKVREEFKELKARNTKKEGDLIAAQARLKDLEALLNSKEAALSTAL
